From the supplement of paper PMC9170038

System: K4 kissing-loop RNA reporter
Test: apparent KD of K4 kissing-loop reporter; higher = weaker reporter binding
Settings: Eterna round: R107
Procedure: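 RNA-MaP round R107: designed RNA switches with theophylline, tryptophan, arginine or FMN aptamers are transcribed on-chip within common flanks. They are titrated with a labelled K4 kissing-loop RNA reporter in RNA-MaP buffer (100 mM Tris pH 7.5, 80 mM KCl, 4 mM MgCl2), without ligand or with the indicated ligand. Median apparent KD per design.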

[1] = input ligand: theophylline 20 uM
[2] = input ligand: tryptophan 2.4 mM
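Further: bound reporter read as fluorescence of individual clusters on recovered sequencing chips by microscopy, with normalized cluster intensities fitted with a binding model.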

Sequence | apparent KD of K4 kissing-loop reporter (input ligand: FMN 200 uM) | apparent KD of K4 kissing-loop reporter (input ligand: arginine 13.2 mM) | apparent KD of K4 kissing-loop reporter (input ligand: none) | apparent KD of K4 kissing-loop reporter [1] | apparent KD of K4 kissing-loop reporter [2]
UAUCGAGUGAUGUUCGAUGUAGUGCAUUCAGAGGAUAUAGGAUGGGCUAGAAGGCUGAAAAGUGCUUCGAGUGAUGUUCGAAGAU [Exclusion FMN A GF 5] | 63.8 nM | 49.2 nM | 80.3 nM | 57.6 nM | 65.3 nM
CUCUAGGCGCUCGCGUGAGUGAUGUUUACGCGAGGACCGGUACGGCCGCCACUCGCAGACUGGGUGUAAGCGGAGCUGUAUGCCC [theeternabot_exclusion_KL_Trp_A_12] | 277 nM | 158 nM | 212 nM | 174 nM | 223 nM
AUCGUUGUCUGAGGAUAUCGGUUAUCUGUAGUGAUGUUACAGUAUAUUGAUAUUAAAGUUUCUAUUCGAGAAGGCAGACUACGUA [JR_Nu_ExcFMNB_Sub022] | 71.4 nM | 65.4 nM | 72.1 nM | 58.9 nM | 71.9 nM
UAAGAAUAAGUAGCAGUGAUGUUGCUACUACGAGGACCGGUACGGCCGCCACUCGAGCCGUACAAAGUAGCAACUAGUACGAAUA [(H1)-(H2)-(Trp1)-(Trp2)-(T)'-(H)'-(T)''] | 231 nM | 194 nM | 223 nM | 246 nM | 365 nM
CUAUGGAAACAUAGUAGUCGGGAAACCGAUACCAGUAUGGAAACAUACCCUUGGCAGCGGAAUGAUUAAACGGAGUGAUGUUCCG [Theophylline A K4 18] | 279 nM | 276 nM | 292 nM | 223 nM | 250 nM
GAUAUAGUGAUGUUAUAUACUGAUAGACAACGAGGACCGGUACGGCCGCCACUCGAGAGGGUGAAAAUGGUGAUAAAAUAAUGAU [#03 K4 Tryptophan A Exclusion] | 349 nM | 271 nM | 381 nM | 322 nM | 274 nM
GUAUGUUCGAAAGAACGUACAUCUUCGGAAGGAGCGCGUGAAAACGCAGGUAGGUCGCCGAAGUUAUUAGGUAGUGAUGUUACCU [Arginine A K4 8] | 128 nM | 99.1 nM | 101 nM | 109 nM | 114 nM
UGAUAGGACAGAAGGAGCGGAGCUGGUCAAAGACCAGCAAUAACGUUGAAAGGAGUGAUGUUCCAGGUAGGUCGCUGUCCUAUCU [ArgBX 26 #SwitchBubble #StaticStem] | 121 nM | 130 nM | 120 nM | 163 nM | 93.7 nM
AGGUCUGCACGAAGGAGCGCCCUGACAGGUUGCUGCCGUGGGCAGUGAUGUUGCUCAGUCCGGCAGGUAGGUCGCGUGCAGACCU | 136 nM | 109 nM | 123 nM | 97.5 nM | 161 nM
AAUAUAGUGAUGUUAUAUAAGAAGGAGUUACGAGGACCGGUACGGCCGCCACUCGAAACGAGUGAAGAAGGAGGAAGGAGGAGGA [SSTRyptA.A] | 479 nM | 300 nM | 453 nM | 409 nM | 366 nM
AAGCAGUCACUCGAAGCCAUCGAAGAUGGUCGAGGACCGGUACGGCCGCCACUCGGAGUGAUGUUCCGAAGACUGCAAAAUAAAA [#SwitchBubble 11] | 275 nM | 246 nM | 286 nM | 273 nM | 526 nM
UGUGAUGUGUAGUGUUAUGUUUUGCGGGAUACCAGAGUCUUUUUAUUCCCUUGGCAGCUUGAGUGAUGUUUGAUGCUGUUGUUGU [pwwamullin] | 485 nM | 349 nM | 461 nM | 463 nM | 339 nM
AGACUACUGAUAGGAUAUAACAUACUAGCUCGUAUACCAAAGGUAUACGAGCUCCUUCUAGUGAUGUUAGAAGGGUCGGUAGUCA [Omei KL FMN B Exc B v4] | 107 nM | 101 nM | 106 nM | 99.6 nM | 102 nM
GGGAGUAGUGCGGCCGCCACUGUGAAAGUAGAAGAAUAUAGUGAUGUUAUAUAGGAACAAAAGAAUAGGACCGGGCAUUAGAUUU [SSTRyptB.X] | 311 nM | 260 nM | 304 nM | 299 nM | 198 nM
GUAUCGCUAGGAGGAUAUGUCGUUUUUCAUAGCAAUGGCUGUGCGGAGUGAUGUUCCGAUUUACCGGCAGAAGGCCUAGUGAUAC [FMN B 28] | 118 nM | 104 nM | 92.9 nM | 106 nM | 89.8 nM
UUAGAGAUCUCAGGAUAUCAGUGAUGUUGGUUGCCAGAUCUGAGAUAGAAUUCUAUCUCAGAUCAAUGAGAAGGGAGAUCUCAUU [AK4 Exc FMN B] | 501 nM | 313 nM | 352 nM | 317 nM | 282 nM

Sequence | apparent KD of K4 kissing-loop reporter (input ligand: FMN 200 uM) | apparent KD of K4 kissing-loop reporter (input ligand: arginine 13.2 mM) | apparent KD of K4 kissing-loop reporter (input ligand: none) | apparent KD of K4 kissing-loop reporter [1] | apparent KD of K4 kissing-loop reporter [2]
UGAUCAACAUCUGAUACCAGUCGCUCGAGUAAUCAACCGUGGCUAGUGAUGUUGGCUUUUGACCCUUGGCAGCAGAAUCGUGUCA [theeternabot_sameState_KL_Theo_B_20] | 134 nM | 131 nM | 112 nM | 189 nM | 120 nM
GGAUAGGAUAGAGGAUAUGGUAGUGAUGUUACCAAACUGGUUAAACAUGUCAGAAAACUGGCAUGACCAGAAGGCUGUCCUAUCG [FmnBX 27 U9] | 102 nM | 63.4 nM | 71 nM | 70.5 nM | 69.8 nM
GCAGUCCGGACGGCCGCCACUAUCCGUAAAGUGAUGUUUUACGAACAAUCGAUUGCAUAUCAGAAUAGGACCGGGUCCGUCGACC [theeternabot_sameState_KL_Trp_B_15] | 228 nM | 185 nM | 212 nM | 170 nM | 201 nM
UAAGAUAUGAGGGAUACCAGCCAUAAGGAAAGUGUGAUGAGUGAUGUUCUGACAAGCCAAGGCCCUUGGCAGCUUUAAUAGCAUC [whbob_SS_Theo_B_th76] | 271 nM | 80.8 nM | 164 nM | 218 nM | 203 nM
GCAGUGAUGUUGCGGAUGUACAGUGGCGUGCGAGGACCGGUACGGCCGCCACUCGUACAGAACAAGCUAAUACAUCGAUAGGUGA [whbob_SS_Tryp_A_m1] | 493 nM | 294 nM | 556 nM | 516 nM | 355 nM
CGCGCGCGUUUGAGAGGGUGCGCGCGAAGUGAGGAUAUUUAGGGAGAAAGAAGGCACUAUAAAAUAUAGUGAUGUUAUAUAAGGG [SSFMNA.G] | 431 nM | 114 nM | 382 nM | 187 nM | 344 nM
AGCUGUGGCAGAAGGAGCGGCAGUUAUUCUGAUAGUACUCUGAGUGAUGUUCAGAACGACUGUCAGGUAGGUCGCUGUCACAGCU [#02 K4 Arginine B Exclusion] | 252 nM | 252 nM | 234 nM | 206 nM | 218 nM
UCCUGCAAUCUGCCACGAAAGUGGGUUGAUACCAGAGUCGAAAGACUCCCUUGGCAGCGAGUGAUGUUCGUUGCAGGUGUUUAAA [MatMod 11 - Jieux - Exclusion - Theophylline A] | 197 nM | 172 nM | 186 nM | 217 nM | 174 nM
CUAUAGACCCUUCGGAUAGUGAUGUUGUCACGAGGACCGGUACGGCCGCCACUCGCUGCCACCAUACCGCUUCACGGAACGAGCA [theeternabot_exclusion_KL_Trp_A_7] | 483 nM | 429 nM | 503 nM | 599 nM | 169 nM
GCCGCAAGGAUAGCAGCAAUAGGCGCUCGCUAGGAUAUCUGGAAACAGAGAAGGAGCUGGAGUGAUGUUUUACCUCCUAAAAUUA | 517 nM | 1900 nM | 682 nM | 210 nM | 1070 nM
GUUACGCAUGGAAGGAGCGCAGGCUCAACAAAUAGCUCAGUGAUGUUGAGCAAAUUAAAACUGCAGGUAGGUCGCCAUGUGUAAC [Ex Arginine B K4 22] | 399 nM | 399 nM | 508 nM | 371 nM | 422 nM
UUAUAUACGAGUGAUGUUCGUUAUUUAUCAGAGGAUAUGCUUAAAUGCAGAAGGCUGUAUUUCUAUUUGAUAUUAAAUUUUAUAA [JR_Nu3_ExcFMNA_Sub026] | 90.8 nM | 89.8 nM | 66.8 nM | 86.1 nM | 57.3 nM
AAAGAUCUUCUAGAAACUAGAAGAUCAAGAGAGGAUAUCCGAAUUCGGAGAAGGCUCACUAAGUGAUGUUUGGACCCAAAGGGAA [AK3 SS FMN A] | 1460 nM | 1520 nM | 1650 nM | 1600 nM | 1030 nM
CGGAUGUAGUGAUGUUAUAUUAGAUGUAGACGAGGACCGGUACGGCCGCCACUCGUGACGGCUGCUAGCGCGUUGCGAGGUUUGC [ExTryptoA.Cn] | 716 nM | 488 nM | 758 nM | 518 nM | 543 nM
ACGCGCGCGAGUGAUGUUCGGAGCGGCUGGCAGGAUAUGCCGCAAGGCAGAAGGGUCGUGGCGCGUCCAGGGUAACCUGGACGCG [#2 Exclusion - FMN A Attempt #28 (HarryS)] | 190 nM | 401 nM | 466 nM | 391 nM | 455 nM
GGUUCCUCAGUGAUGUUGAGGUGACCUCGGCAGGAUAUAGGCAUUACUAGAAGGGCCAAAAGAAUCCUGUGCAGCAACACAGGGA [Usrasoza] | 152 nM | 238 nM | 298 nM | 257 nM | 262 nM
